Here are results for six molecules from patent US20250250335A1 (SHENGHE CHINA BIOPHARMACEUTICAL, published 2025).

For orientation: EC50 (read off the curve) means the concentration needed to bring the measured effect to its halfway point.

Where two headings read alike, the source gives them in different places.

Test [1] deals with T1, human CEACAM5-his (ACRO CE5-H5226) (human, UniProt P06731 35-685).
T1 construct: Bought protein; not shown: His tag
T1 sequence (looked up): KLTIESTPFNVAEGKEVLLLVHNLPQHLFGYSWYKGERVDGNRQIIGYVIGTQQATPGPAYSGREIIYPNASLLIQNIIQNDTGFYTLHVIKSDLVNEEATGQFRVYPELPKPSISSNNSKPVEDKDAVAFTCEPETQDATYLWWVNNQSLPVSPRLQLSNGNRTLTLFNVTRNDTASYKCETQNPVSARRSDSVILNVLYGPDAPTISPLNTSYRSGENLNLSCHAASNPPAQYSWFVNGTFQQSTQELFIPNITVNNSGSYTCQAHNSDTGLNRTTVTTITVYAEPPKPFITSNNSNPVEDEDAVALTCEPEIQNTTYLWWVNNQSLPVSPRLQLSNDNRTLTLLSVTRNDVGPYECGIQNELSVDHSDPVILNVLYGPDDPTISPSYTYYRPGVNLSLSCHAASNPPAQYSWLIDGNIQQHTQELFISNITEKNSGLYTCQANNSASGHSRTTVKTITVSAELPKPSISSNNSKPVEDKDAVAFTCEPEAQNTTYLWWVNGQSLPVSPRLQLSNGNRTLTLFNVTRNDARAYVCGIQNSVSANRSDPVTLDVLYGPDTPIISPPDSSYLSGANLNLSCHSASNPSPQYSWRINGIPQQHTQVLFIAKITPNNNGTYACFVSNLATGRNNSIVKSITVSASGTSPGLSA
Description: ELISA on coated human CEACAM5, OD450. The method, then:
(§1) The binding activity of the antibodies to human CEACAM5, human CEACAM6, and human CEACAM6 (AB) proteins was detected by ELISA. The plate coated with proteins was incubated at 4° C. overnight, and the 96-well ELISA plate blocked with 2% PBS-BSA was added with the antibody to be detected and incubated at 37° C. for 1 h. After washing 3 times with PBS containing 0.05% Tween, the absorbance value of each well was read at wavelength 450 nm with the gradient-diluted mouse-derived candidate antibody as the primary antibody and anti-mouse-IgG-FC-HRP as the secondary antibody, and the absorbance value of each well was read at wavelength 450 nm after the TMB color development.

Test [2] deals with T2, Human-CEACAM6 (AB)-His (human, UniProt P40199 145-314).
T2 construct: Made in house, purified on a nickel column
The test can be described thus: ELISA on coated human CEACAM6 (AB), OD450. The method, then: as §1

The target of test [3] is T3, mouse CEACAM5 (mouse, UniProt Q3UKK2 35-947, limits assumed).
T3 sequence (looked up): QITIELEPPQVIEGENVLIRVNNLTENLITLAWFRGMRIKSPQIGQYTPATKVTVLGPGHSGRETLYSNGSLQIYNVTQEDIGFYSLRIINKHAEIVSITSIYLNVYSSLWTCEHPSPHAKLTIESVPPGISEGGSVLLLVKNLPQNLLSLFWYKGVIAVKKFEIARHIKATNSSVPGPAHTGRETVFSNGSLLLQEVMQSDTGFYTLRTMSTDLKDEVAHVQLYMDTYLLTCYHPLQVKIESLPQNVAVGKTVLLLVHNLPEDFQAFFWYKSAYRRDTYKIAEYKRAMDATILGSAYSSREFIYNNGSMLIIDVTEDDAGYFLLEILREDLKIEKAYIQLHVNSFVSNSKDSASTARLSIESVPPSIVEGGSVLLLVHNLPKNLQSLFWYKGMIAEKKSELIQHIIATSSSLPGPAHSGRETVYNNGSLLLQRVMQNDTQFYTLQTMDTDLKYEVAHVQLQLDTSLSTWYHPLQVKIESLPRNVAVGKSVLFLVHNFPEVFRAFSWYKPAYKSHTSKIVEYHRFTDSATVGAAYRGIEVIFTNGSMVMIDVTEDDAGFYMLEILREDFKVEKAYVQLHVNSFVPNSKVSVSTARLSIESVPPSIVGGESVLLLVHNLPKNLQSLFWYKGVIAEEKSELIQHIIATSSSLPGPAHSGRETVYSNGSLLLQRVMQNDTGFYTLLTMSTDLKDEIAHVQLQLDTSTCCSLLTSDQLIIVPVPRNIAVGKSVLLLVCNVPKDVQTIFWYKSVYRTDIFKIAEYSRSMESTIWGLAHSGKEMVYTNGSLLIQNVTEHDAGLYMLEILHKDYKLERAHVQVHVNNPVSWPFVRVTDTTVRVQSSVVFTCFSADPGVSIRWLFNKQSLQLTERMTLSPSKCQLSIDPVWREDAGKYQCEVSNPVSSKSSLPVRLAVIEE
The test can be described thus: ELISA on coated protein, OD450. The method, then: The affinity of the antibodies to monkey CEACAM5, monkey CEACAM6, and mouse CEACAM5 proteins was determined by ELISA. The plates encapsulated with […] proteins were incubated at 4° C. overnight, and the antibodies to be detected were added to 96-well ELISA plates after being blocked with 2% PBS-BSA and incubated at 37° C. for 1 h. After washing 3 times with PBS containing 0.05% Tween, the absorbance value of each well was read at wavelength 450 nm with the antibody to be detected as the primary antibody and Goat anti-mouse IgG-FC-HRP as the secondary antibody, and the absorbance value of each well was read at wavelength 450 nm after the TMB color development. The specific binding to CEACAM5 and CEACAM6 of mouse and monkey was detected by Elisa method.
Background: ELISA stands for enzyme-linked immunosorbent assay.

For test [4], the target named is T4, CEACAM5 on the surface of the tumor cells (HPAFII cells) (UniProt P06731 35-685).
T4 construct: whole, on cells
T4 sequence (looked up): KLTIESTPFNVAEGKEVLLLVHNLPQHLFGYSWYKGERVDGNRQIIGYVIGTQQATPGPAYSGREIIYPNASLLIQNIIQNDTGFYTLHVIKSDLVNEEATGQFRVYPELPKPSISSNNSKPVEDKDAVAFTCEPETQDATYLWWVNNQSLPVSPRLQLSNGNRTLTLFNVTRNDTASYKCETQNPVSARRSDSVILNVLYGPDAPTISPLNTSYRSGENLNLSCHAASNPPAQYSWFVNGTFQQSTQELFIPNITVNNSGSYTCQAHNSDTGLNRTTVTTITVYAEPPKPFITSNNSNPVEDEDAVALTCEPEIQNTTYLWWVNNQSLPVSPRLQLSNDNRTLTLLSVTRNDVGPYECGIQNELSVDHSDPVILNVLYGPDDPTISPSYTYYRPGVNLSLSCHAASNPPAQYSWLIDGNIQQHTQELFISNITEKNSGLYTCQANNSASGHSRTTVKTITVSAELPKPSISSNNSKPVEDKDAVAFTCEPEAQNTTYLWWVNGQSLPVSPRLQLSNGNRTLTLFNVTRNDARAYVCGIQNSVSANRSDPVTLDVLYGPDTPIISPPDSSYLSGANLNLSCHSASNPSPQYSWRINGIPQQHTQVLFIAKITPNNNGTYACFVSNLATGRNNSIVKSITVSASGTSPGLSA
Description: flow cytometry on HPAFII cells (Mean-FITC); the cells carry CEACAM5 and CEACAM6, signal not divided between the two. Here is the method:
(§2) The antibody to be tested was taken as the initial concentration of 200 nM and diluted 5-fold with 6 gradients. The HPAFII cells (From USTC […] FOR ADVANCED STUDIES) in the incubator were taken out, and the cell suspension was transferred to a 15 mL centrifuge tube, centrifuged, and counted by resuspension in PBS. A blank control group (Blank), a negative control group (NC), an experimental group, a positive control group and the irrelevant antibody group were kept. […] The cell suspension was spread in a 96-well plate according to about 3×10⁵ cells/well. Centrifugation (1000 rpm, 5 min) was performed, followed by washing with PBS, re-centrifugation, and repeated twice to remove media residues. The supernatant was discarded, 100 μL of primary antibody solution and irrelevant antibody solution were added to the experimental group and irrelevant antibody group, respectively, and the cells were resuspended and incubated at room temperature for 1 h. The blank group, and the negative control group were incubated with an equal amount of PBS.
(§3) After 1 h, PBS was added to wash twice. After the supernatant was discarded, 100 μL of fluorescent secondary antibody dilution (Mouse-derived secondary antibody from Abcam ab6785) was added to each sample group, except for the blank group which was added with 100 μL of PBS. After incubation at room temperature and protected from light for 0.5 h, centrifugation was performed and PBS added to wash the samples twice. After the supernatant was discarded, 120 μL of PBS was added to resuspend and sequentially flow cytometry was performed to detect the mean fluorescence intensity. The concentration of the antibody was logarithmically taken as the horizontal coordinate, and the Sigmoidaldose-response (VariableSlope) method (GraphPadPrism Software, GraphPadSoftware, San Diego, California) was chosen to perform a nonlinear regression to obtain the binding activity curves of the antibody on HPAFII cells.

Test [5] deals with T5, CEACAM6 on the surface of the tumor cells (HPAFII cells) (UniProt P40199 35-320).
T5 construct: whole, on cells
T5 sequence (looked up): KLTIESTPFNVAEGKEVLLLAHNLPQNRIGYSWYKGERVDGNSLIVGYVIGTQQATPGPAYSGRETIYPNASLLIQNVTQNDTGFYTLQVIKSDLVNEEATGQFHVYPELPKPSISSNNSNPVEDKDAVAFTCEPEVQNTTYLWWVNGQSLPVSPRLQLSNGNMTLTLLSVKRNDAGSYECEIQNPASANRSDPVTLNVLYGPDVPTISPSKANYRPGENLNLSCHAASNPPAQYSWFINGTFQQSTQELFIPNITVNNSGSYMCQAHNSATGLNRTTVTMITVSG
Described as above. Here is the method:
as §2, §3

For test [6], the target named is T5, CEACAM6 on the surface of the tumor …. Description: flow cytometry on HPAFII cells (Mean PE); the cells carry CEACAM5 and CEACAM6, signal not divided between the two. The method, then: Centrifugation (1000 rpm, 5 min) was performed, followed by washing with PBS, re-centrifugation, and repeated twice to remove media residues. The supernatant was discarded, 100 μL of primary antibody solution and irrelevant antibody solution were added to the experimental group and irrelevant antibody group, respectively, and the cells were resuspended and incubated at room temperature for 1 h. The blank group, and the negative control group were incubated with an equal amount of PBS.
as §3, with “(Secondary” for “(Mouse-derived secondary”, “ab98596)” for “ab6785)”
(In flow cytometry, cells or beads pass a laser one at a time.)

Test [7] has as its target T1, human CEACAM5-his (ACRO CE5-H5226). Description: ELISA on coated human CEACAM5, OD450. The method, then: as §1
This is another data set of the same source.

T2 sequence (P40199 other isoform, or with tags, fused parts or gaps limits assumed): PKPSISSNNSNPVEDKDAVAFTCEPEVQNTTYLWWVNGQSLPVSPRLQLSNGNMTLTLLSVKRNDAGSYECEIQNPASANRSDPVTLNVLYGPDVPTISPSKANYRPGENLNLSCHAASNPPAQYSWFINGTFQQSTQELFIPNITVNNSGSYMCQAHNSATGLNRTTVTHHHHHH

B1: Antibody 5 (antibody, V domains shown)
VH: QIQLVQSGPELMKPGETVKISCKASGYTFTNYGMNWVKQAPGKGLKWLGWINTYTGKPTYADDIKERFVFSLETSASTAYLQINNLKNEDTATYFCARRDYRGWYFDVWGAGTPVTVSS
VL: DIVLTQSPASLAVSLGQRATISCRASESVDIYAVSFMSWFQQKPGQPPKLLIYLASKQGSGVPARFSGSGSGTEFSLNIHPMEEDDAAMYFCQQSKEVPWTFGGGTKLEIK
notes: Mouse-derived hybridoma antibody; also called mouse-derived antibody 5
As to B1, the binding result in test [1] is “binds”. Moreover, the “EC50 (read off the curve)” value in test [2] was about 0.04 µg/mL.

B2: Antibody 2 (antibody, V domains shown)
VH: EVKLVESGGGLVQPGGSLRLSCATSEFTLIDYYMSWVRQSPGKALEWLGYIRNKVNGHTTDYIASVKGRFAISRDNSQSILYLQMNTLRVEDSATYYCVRDPGINWYFDVWGAGTTVTVSS
VL: QIVLSQSPAILSASPGEKVTMTCRASSRVTYMHWYQQKPGSSPKPWISATSNLASGVPARFSGSGSGTSYSLTISRVEAEDAATYYCQQWSYNPPTFGAGTKLELN
notes: Mouse-derived hybridoma antibody; also called mouse-derived antibody 2
Molecule B2 registered an OD in test [3] of 0.15 OD. Besides, the “EC50 (read off the curve)” value in test [1] was about 0.02 µg/mL; in test [4] it was about 3 nM; in test [5], about 3 nM.

B3: Antibody E (antibody, human IgG1, kappa, V domains shown)
VH: EVQLVESGGGLVQPGGSLRLSCATSEFTLIDYYMSWVRQAPGKALEWVGYIRNKVNGHTTDYIASVKGRFTISRDDSKNSLYLQMNSLKTEDTAVYYCVRDPGINWYFDVWGQGTLVTVSS
VL: EIVLTQSPATLSLSPGERATLSCRASSRVTYMHWYQQKPGQSPRPLISATSNLASGIPARFSGSGSGTDYTLTISSLEPEDFAVYYCQQWSYNPPTFGGGTKLELKR
notes: humanized from mouse-derived antibody 2; also called humanized antibody E
Regarding B3, the binding result in test [6] was “binds”.

B4: Antibody 12 (antibody, V domains shown)
VH: EVKLVESGGGLVQPGGSLSLSCAVSGFIFTDYFMSWVRQPPGKTLEWLALIRNKANGYIIEYSESVKGRFTISRGNSQSIFYLQMNALRTEDSATYYCARDIGIRWNFDVWGAGTTVTVSS
VL: QIVLTQSPAIMSASPGEKVTMTCSATSRVTYMHWYQQKSGTSPKRWIYATSTLASGVPARFSGSGSGTSYSLTISSMEAEDAATYYCQQWSYNPPTFGSGTKLEIK
notes: Mouse-derived hybridoma antibody; also called mouse-derived antibody 12
For the molecule B4, the figures for the “EC50 (read off the curve)” value in test [7] and in test [2] were about 0.02 µg/mL and about 0.009 µg/mL, respectively.

B5: Antibody 3 (antibody, V domains shown)
VH: EVQMVESGGGLVKPGGSLKLSCAASGFTFSDYYMYWVRQSPEKRLEWVATISDAGTYTSYLDSVKGRFIISRDNAKNNLYLQMSSLKSEDTAIYYCARNYYGSSPYGMDYWGQGTSVTVSS
VL: QIVLTQSPAIMSASPGEKVTMTCSASSSVIYMHWYQQKSGTSPKRWIYDTSKLASGVPARFSGSGSGTSYSLTISSMEAEDAATYYCQQWSSHPLTFGAGTKLELK
notes: Mouse-derived hybridoma antibody; also called mouse-derived antibody 3
As for B5, the “EC50 (read off the curve)” value in test [1] was about 0.02 µg/mL; in test [4] it was about 1 nM; in test [5], about 1 nM.

B6: Antibody 4 (antibody, V domains shown)
VH: QIQLVQSGPELKKPGETVKISCKASGYTFTDYSLHWVKQVPVKGLKWMGWINTETGEPTYADDFKGRFAFSLDTSASSAYLQIHNLKNEDTATYFCASPVSLLFYYFTVWGAGTTVTVSA
VL: DIQMTQTTSSLSASLGDRVTISCRASQDISHFLNWYQQKPDGTVELLIYYTSRLLSGVPSRFSGSGSGTDYSLTIANLEQEDIATYFCQQGKTLPWTFGGGTKVEIK
notes: Mouse-derived hybridoma antibody; also called mouse-derived antibody 4
Regarding B6, the “EC50 (read off the curve)” value in test [1] was about 0.02 µg/mL; in test [4], about 2 nM; in test [5], about 2 nM.
